Assay [1] has as its target T1, 生物素标记的TIGIT (Acrobiosystems, TIT-H82E5) (UniProt Q495A1).
T1 sequence (biotin-labelled (生物素标记), site not stated, looked up): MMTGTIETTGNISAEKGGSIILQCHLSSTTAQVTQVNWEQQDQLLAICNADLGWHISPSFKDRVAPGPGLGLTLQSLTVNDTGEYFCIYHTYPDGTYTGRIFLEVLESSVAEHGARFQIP
The assay is described as follows: competition ELISA, control IgG, inhibition of biotinylated TIGIT binding to coated CD155. In general terms: In an ELISA, binding on a coated surface is turned into a signal by an enzyme label.

Assay [2] concerns the target T2, TIGIT on 293T-TIGIT cells (UniProt Q495A1 22-244).
T2 construct: whole, on cells; also called 细胞膜上TIGIT; 293T-TIGIT细胞
T2 sequence (looked up): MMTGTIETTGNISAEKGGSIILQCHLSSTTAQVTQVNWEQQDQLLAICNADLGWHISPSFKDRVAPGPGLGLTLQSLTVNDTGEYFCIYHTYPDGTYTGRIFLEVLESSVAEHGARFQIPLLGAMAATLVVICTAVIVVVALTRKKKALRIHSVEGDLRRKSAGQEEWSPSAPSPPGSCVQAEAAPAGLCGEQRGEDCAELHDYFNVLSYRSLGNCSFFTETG
Briefly: flow cytometry on 293T-TIGIT cells, FITC goat anti-mouse IgG detection. For orientation: Flow cytometry measures light scatter and fluorescence of single cells or particles in a stream.

In assay [3] the target is T3, 生物素标记的TIGIT (Acrobiosystems, TIT-H82E5) (UniProt Q495A1 22-141, biotin-labelled (生物素标记), site not stated).
T3 sequence (looked up): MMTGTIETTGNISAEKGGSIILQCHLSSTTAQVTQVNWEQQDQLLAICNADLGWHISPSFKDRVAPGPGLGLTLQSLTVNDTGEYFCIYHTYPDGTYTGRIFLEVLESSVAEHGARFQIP
Briefly: competition ELISA, blocking of biotinylated TIGIT binding to coated CD155.

Assay [4] deals with T4, 人TIGIT蛋白 (Acrobiosystems, TIT-H52H3) (human, UniProt Q495A1 22-141).
T4 construct: Bought recombinant protein coated on ELISA plates
T4 sequence (looked up): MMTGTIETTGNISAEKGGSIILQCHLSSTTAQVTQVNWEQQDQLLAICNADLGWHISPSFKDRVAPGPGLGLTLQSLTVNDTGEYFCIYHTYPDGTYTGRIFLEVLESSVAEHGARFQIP
Briefly: ELISA, human TIGIT protein coated at 0.5 μg/ml, goat anti-mouse IgG detection.

Assay [5] deals with T3, 生物素标记的TIGIT (Acrobiosystems, TIT-H82E5). The assay is described as follows: competition ELISA, blocking of biotinylated TIGIT binding to coated CD112.

Usually EC50 stands for the midpoint of the concentration-response curve. High values mean weaker potency, low ones greater potency. What is called IC50 is the concentration that inhibits the measured activity by half. Read a low IC50 as greater potency.

Consider IgG1 (antibody), for which the 抑制率(%) in assay [1] came out at 1.68%.

B1: 7D3 (antibody, V domains shown)
VH: EVQLQQSGPELVKPGASVKMSCKASGYTFTSYVMHWVKQKPGQGLEWIGYINPYNDGTKYNEKFKGKATLTSDKSSSTAYMELSSLTSEDSAVYYCARRGNGPLRVFAYWGQGTTVTVSS
VL: DIVMTQTPKFMSTSVGDRVSITCKASQDVSTAVAWYQQKPGQSPKLLIYSASYRYTGVPDRFTGSGSGTDFTFTISSVQAEGLAVYYCQQHYSTPPTFGAGTKLEIK
notes: Mouse monoclonal antibody from a hybridoma (BALB/c x SP2/0); also called 鼠源抗体; 鼠源抗TIGIT抗体7D3
With B1, the EC50 in assay [2] amounted to 11.3 pM; in assay [4], 108 pM. In addition, the 50% inhibitory concentration (IC50) in assay [3] came to 804 pM; in assay [5], 3970 pM.

The values are drawn from CN113150156A (ZHEJIANG BORUI BIOPHARMACEUTICAL CO LTD, dated 2021).
